# According to patent publication US20260274985A1 (MYTHIC THERAPEUTICS, published 2026):
# T1: TROP2 on TROP2-positive NCI-H1975 cells (human, UniProt P09758 27-323)
# T1 sequence: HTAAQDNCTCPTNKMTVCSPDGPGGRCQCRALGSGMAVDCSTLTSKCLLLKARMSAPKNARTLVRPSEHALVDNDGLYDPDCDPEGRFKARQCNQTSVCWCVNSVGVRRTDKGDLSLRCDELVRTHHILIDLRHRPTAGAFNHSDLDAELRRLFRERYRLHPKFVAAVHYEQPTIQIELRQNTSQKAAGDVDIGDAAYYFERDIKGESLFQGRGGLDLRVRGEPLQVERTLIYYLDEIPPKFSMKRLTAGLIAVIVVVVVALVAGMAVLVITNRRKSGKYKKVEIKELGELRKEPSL
# T2: Human TROP2 Protein, His Tag (Acro Biosystems) (human, UniProt P09758 27-274)
# T2 construct: not shown: His tag
# T2 sequence (looked up): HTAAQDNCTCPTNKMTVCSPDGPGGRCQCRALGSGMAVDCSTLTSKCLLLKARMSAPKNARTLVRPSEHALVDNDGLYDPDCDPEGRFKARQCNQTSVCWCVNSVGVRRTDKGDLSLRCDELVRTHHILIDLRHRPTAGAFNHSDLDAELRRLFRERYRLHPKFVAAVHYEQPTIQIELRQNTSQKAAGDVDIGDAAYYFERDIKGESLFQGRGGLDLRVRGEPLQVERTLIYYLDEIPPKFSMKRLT
# What was measured:
# [1] = target: T1, TROP2 on TROP2-positive NCI-H1975 cells; assay: cell-based or functional assay
# [2] = target: T1, TROP2 on TROP2-positive NCI-H1975 cells; assay: binding to NCI-H1975 cells at pH 6.4, maximal MFI
# [3] = target: T2, Human TROP2 Protein, His Tag (Acro …); assay: BLI (Octet)
# [4] = target: T1, TROP2 on TROP2-positive NCI-H1975 cells; assay: cell-based or functional assay; remark: listed apart in the source
Max MFI (@ pH 6.4)-H1975 [2],binding result [3],FOW H1975 (10 nM) [4],Binder,Cytotox Fold over datopotamab (FOD) [1]
–,binds,–,"MYT13270 (antibody, V domains shown, Full-length IgG from Expi293 supernatant; also called datopotamab heavy chain and light chain pairing variant) VH: QVQLVQSGAEVKKPGASVKVSCKASGYTFTTAGMQWVRQAPGQGLEWMGWINTHSGVPKYAEDFKGRVTISADTSTSTAYLQLSSLKSEDTAVYYCARSGHGSSYWYFDVWGQGTLVTVSS VL: DIQMTQSPSSLSASVGDRVTITCKASQDVSTAVAWYQQKPGKAPKLLIYSASYRYTGVPSRFSGSGSGTDFTLTISSLQPEDFAVYYCQHHYITPLTFGQGTKLEIK",–
–,binds,–,"MYT13269 (antibody, V domains shown, Full-length IgG from Expi293 supernatant; also called datopotamab heavy chain and light chain pairing variant) VH: QVQLVQSGAEVKKPGASVKVSCKASGYTFTTAGMQWVRQAPGQGLEWMGWINTHSGVPKYAEDFKGRVTISADTSTSTAYLQLSSLKSEDTAVYYCAHSGFGSSYWYFDVWGQGTLVTVSS VL: DIQMTQSPSSLSASVGDRVTITCKASQDVSTAVAWYQQKPGKAPKLLIYSASYRYTGVPSRFSGSGSGTDFTLTISSLQPEDFAVYYCQHHYITPLTFGQGTKLEIK",–
–,binds,–,"MYT13262 (antibody, V domains shown, Full-length IgG from Expi293 supernatant; also called datopotamab heavy chain and light chain pairing variant) VH: QVQLVQSGAEVKKPGASVKVSCKASGYTFTTAGMQWVRQAPGQGLEWMGWINTHSGVPKYAEDFKGRVTISADTSTSTAYLQLSSLKSEDTAVYYCARSGHGSSYWYFDVWGQGTLVTVSS VL: DIQMTQSPSSLSASVGDRVTITCKASQDVSTAVAWYQQKPGKAPKLLIYSAHYRYTGVPSRFSGSGSGTDFTLTISSLQPEDFAVYYCQQHYITPLTFGQGTKLEIK",–
–,binds,–,"MYT13261 (antibody, V domains shown, Full-length IgG from Expi293 supernatant; also called datopotamab heavy chain and light chain pairing variant) VH: QVQLVQSGAEVKKPGASVKVSCKASGYTFTTAGMQWVRQAPGQGLEWMGWINTHSGVPKYAEDFKGRVTISADTSTSTAYLQLSSLKSEDTAVYYCAHSGFGSSYWYFDVWGQGTLVTVSS VL: DIQMTQSPSSLSASVGDRVTITCKASQDVSTAVAWYQQKPGKAPKLLIYSAHYRYTGVPSRFSGSGSGTDFTLTISSLQPEDFAVYYCQQHYITPLTFGQGTKLEIK",–
–,binds,–,"MYT13271 (antibody, V domains shown, Full-length IgG from Expi293 supernatant; also called datopotamab heavy chain and light chain pairing variant) VH: QVQLVQSGAEVKKPGASVKVSCKASGYTFTTAGMQWVRQAPGQGLEWMGWINTHSGVPKYAEDFKGRVTISADTSTSTAYLQLSSLKSEDTAVYYCARSGFGSHYWYFDVWGQGTLVTVSS VL: DIQMTQSPSSLSASVGDRVTITCKASQDVSTAVAWYQQKPGKAPKLLIYSASYRYTGVPSRFSGSGSGTDFTLTISSLQPEDFAVYYCQHHYITPLTFGQGTKLEIK",–
–,binds,–,"MYT13259 (antibody, V domains shown, Full-length IgG from Expi293 supernatant; also called datopotamab heavy chain and light chain pairing variant) VH: QVQLVQSGAEVKKPGASVKVSCKASGYTFTTAGMQWVRQAPGQGLEWMGWINTHSGVPKYAEDFKGRVTISADTSTSTAYLQLSSLKSEDTAVYYCARSGFGSHYWYFDVWGQGTLVTVSS VL: DIQMTQSPSSLSASVGDRVTITCKASQDHSTAVAWYQQKPGKAPKLLIYSASYRYTGVPSRFSGSGSGTDFTLTISSLQPEDFAVYYCQQHYITPLTFGQGTKLEIK",–
–,binds,–,"MYT13258 (antibody, V domains shown, Full-length IgG from Expi293 supernatant; also called datopotamab heavy chain and light chain pairing variant) VH: QVQLVQSGAEVKKPGASVKVSCKASGYTFTTAGMQWVRQAPGQGLEWMGWINTHSGVPKYAEDFKGRVTISADTSTSTAYLQLSSLKSEDTAVYYCARSGHGSSYWYFDVWGQGTLVTVSS VL: DIQMTQSPSSLSASVGDRVTITCKASQDHSTAVAWYQQKPGKAPKLLIYSASYRYTGVPSRFSGSGSGTDFTLTISSLQPEDFAVYYCQQHYITPLTFGQGTKLEIK",–

# The next lines start with the binder.
Binder,Max MFI (@ pH 6.4)-H1975 [2],binding result [3],FOW H1975 (10 nM) [4],Cytotox Fold over datopotamab (FOD) [1]
"MYT11704 (antibody, human IgG1, V domains shown, Human IgG1 heavy chain constant domain and Kappa light chain constant domain; also called hu7E6SVG WT; hu7E6SVG) VH: QVQLQESGPGLVKPSETLSLTCTVSGGSISSYGVHWIRQPPGKGLEWIGVIWTSGVTDYNSALMGRVTISVDTSKNQFSLKLSSVTAADTAVYYCARDGDYDRYTMDYWGQGTLVTVSS VL: DIVMTQSPDSLAVSLGERATINCRASKSVSTSGYSYMHWYQQKPGQPPKLLIYLASNLESGVPDRFSGSGSGTDFTLTISSLQAEDVAVYYCQHSRELPYTFGQGTKLEIK",31500 MFI,–,–,1.22 fold over datopotamab
"MYT13304 (antibody, V domains shown, Full-length IgG from Expi293 supernatant; also called hu7E6SVG heavy chain and light chain pairing variant) VH: QVQLQESGPGLVKPSETLSLTCTVSGGSISSYGVHWIRQPPGKGLEWIGVIWTSGVTDYNSALMGRVTISVDTSKNQFSLKLSSVTAADTAVYYCARDGDYDHYTMDYWGQGTLVTVSS VL: DIVMTQSPDSLAVSLGERATINCRASKSVSTSGYSYMHWYQQKPGQPPKLLIYLASNLESGVPDRFSGSGSGTDFTLTISSLQAEDVAVYYCQHSRELPYHFGQGTKLEIK",–,binds,–,–
"MYT13280 (antibody, V domains shown, Full-length IgG from Expi293 supernatant; also called hu7E6SVG heavy chain and light chain pairing variant) VH: QVQLQESGPGLVKPSETLSLTCTVSGGSISSYGVHWIRQPPGKGLEWIGVIWTSGVTDYNSALMGRVTISVDTSKNQFSLKLSSVTAADTAVYYCARDGDYDRYTHDYWGQGTLVTVSS VL: DIVMTQSPDSLAVSLGERATINCRASKSVSTSGYSYMHWYQQKPGQPPKLLIYLASNLHSGVPDRFSGSGSGTDFTLTISSLQAEDVAVYYCQHSRELPYTFGQGTKLEIK",–,binds,–,–
"MYT12459 (antibody, human IgG1, V domains shown, Human IgG1 heavy chain constant domain and Kappa light chain constant domain; also called hu7E6SVG pH variant) VH: QVQLQESGPGLVKPSETLSLTCTVSGGSISSYGVHWIRQPPGKGLEWIGVIWTSGVTDYNSALMGRVTISVDTSKNQFSLKLSSVTAADTAVYYCARDGDYDRYTMDYWGQGTLVTVSS VL: DIVMTQSPDSLAVSLGERATINCRASKSVSTSGYSYMHWYQQKPGQPPKLLIYLASNLHSGVPDRFSGSGSGTDFTLTISSLQAEDVAVYYCHHSRHLPYTFGQGTKLEIK",18700 MFI,–,–,1.35 fold over datopotamab
"MYT11614 (antibody, human IgG1, V domains shown, Human IgG1 heavy chain constant domain and Kappa light chain constant domain; also called Sacituzumab LC variant) VH: QVQLQQSGSELKKPGASVKVSCKASGYTFTNYGMNWVKQAPGQGLKWMGWINTYTGEPTYTDDFKGRFAFSLDTSVSTAYLQISSLKADDTAVYFCARGGFGSSYWYFDVWGQGSLVTVSS VL: DIQLTQSPSSLSASVGDRVSITCKASQDVHIAVAWYQQKPGKAPKLLIYSASYRYTGVPDRFSGSGSGTDFTLTISSLQPEDFAVYYCQQHYITPLTFGAGTKVEIK",19400 MFI,–,–,1.35 fold over datopotamab
"MYT13370 (antibody, human IgG1, V domains shown, also called sacituzumab HC-LC pairing variant; Sacituzumab pH variant) VH: QVQLQQSGSELKKPGASVKVSCKASGYTFTNYGMNWVKQAPGQGLKWMGWINTYTGEPTYTDHFKGRFAFSLDTSVSTAYLQISSLKADDTAVYFCARGGFGSSYWYFDVWGQGSLVTVSS VL: DIQLTQSPSSLSASVGDRVSITCKASQDVHIAHAWYQQKPGKAPKLLIYSASYRYTGVPDRFSGSGSGTDFTLTISSLQPEDFAVYYCQQHYITPLTFGAGTKVEIK",13400 MFI,–,1.43 fold over parent antibody,1.28 fold over datopotamab
"MYT13427 (antibody, human IgG1, V domains shown, also called sacituzumab HC-LC pairing variant; Sacituzumab pH variant) VH: QVQLQQSGSELKKPGASVKVSCKASGYTFTNYGMNWVKQAPGQGLKWMGWINTYTGEPTYTDDHKGRFAFSLDTSVSTAYLQISSLKADDTAVYFCARGGFGSSYWYFDVWGQGSLVTVSS VL: DIQLTQSPSSLSASVGDRVSITCKASQDVHIAVAWYQQKPGKAPKLLIYSHSYRYTGVPDRFSGSGSGTDFTLTISSLQPEDFAVYYCQQHYHTPLTFGAGTKVEIK",6110 MFI,–,1.56 fold over parent antibody,1.19 fold over datopotamab
"MYT11670 (antibody, human IgG1, V domains shown, Human IgG1 heavy chain constant domain and Kappa light chain constant domain; also called Datopotamab pH variant) VH: QVQLVQSGAEVKKPGASVKVSCKASGYTFTTAGMQWVRQAPGQGLEWMGWINTHSGVPKYAEDFKGRVTISADTSTSTAYLQLSSLKSEDTAVYYCARSGFGSHYWYFDVWGQGTLVTVSS VL: DIQMTQSPSSLSASVGDRVTITCKASQDVSTAVAWYQQKPGKAPKLLIYSASYRYTGVPSRFSGSGSGTDFTLTISSLQPEDFAVYYCQQHYITPLTFGQGTKLEIK",20000 MFI,–,–,1.41 fold over datopotamab
"MYT13428 (antibody, human IgG1, V domains shown, also called sacituzumab HC-LC pairing variant) VH: QVQLQQSGSELKKPGASVKVSCKASGYTFTNYGMNWVKQAPGQGLKWMGWINTYTGEPTYTDDFHGRFAFSLDTSVSTAYLQISSLKADDTAVYFCARGGFGSSYWYFDVWGQGSLVTVSS VL: DIQLTQSPSSLSASVGDRVSITCKASQDVHIAVAWYQQKPGKAPKLLIYSHSYRYTGVPDRFSGSGSGTDFTLTISSLQPEDFAVYYCQQHYHTPLTFGAGTKVEIK",6720 MFI,–,1.55 fold over parent antibody,1.18 fold over datopotamab
"MYT13369 (antibody, human IgG1, V domains shown, also called sacituzumab HC-LC pairing variant) VH: QVQLQQSGSELKKPGASVKVSCKASGYTFTNYGMNWVKQAPGQGLKWMGWINTYTGEPTYTHDFKGRFAFSLDTSVSTAYLQISSLKADDTAVYFCARGGFGSSYWYFDVWGQGSLVTVSS VL: DIQLTQSPSSLSASVGDRVSITCKASQDVHIAHAWYQQKPGKAPKLLIYSASYRYTGVPDRFSGSGSGTDFTLTISSLQPEDFAVYYCQQHYITPLTFGAGTKVEIK",17100 MFI,–,1.44 fold over parent antibody,1.33 fold over datopotamab
